According to patent publication US20220235344A1, “TRYPSIN VARIANTS WITH IMPROVED ENZYMATIC PROPERTIES” (BIOPHARMA TRANSLATIONSINSTITUT DESSAU FORSCHUNGS GMBH, priority 2018, published 2022):
“And” between values parts separate entries of the source, which are not always exact repeats. Identical values can stand only once.

Legend:
Assay type in all cases: biochemical
[1] = target: T1, Bz-PGGYRAHAG-OH (acyl donor) (Rattus norvegicus, UniProt P00763, A221T/D194K/E154Y/G219Q/H46F/K102D/K66E/L104F/N146E/Q197A/R101E/S195V/S215G/Y45H/Y65H); experiment: Turnover rate of the hydrolysis reaction in the absence of a nucleophilic peptide; details: Zinc ions: no; varying Bz-PGGYRAHAG-OH, 2 μM trypsin variant, no nucleophilic peptide
T1 construct: made in house; host or cells: Pichia pastoris X-33
T1 sequence (P00763 24-246 Y45H/H46F/Y65H/K66E/R101E/K102D/L104F/N146E/E154Y/D194K/S195V/Q197A/S215G/G219Q/A221T): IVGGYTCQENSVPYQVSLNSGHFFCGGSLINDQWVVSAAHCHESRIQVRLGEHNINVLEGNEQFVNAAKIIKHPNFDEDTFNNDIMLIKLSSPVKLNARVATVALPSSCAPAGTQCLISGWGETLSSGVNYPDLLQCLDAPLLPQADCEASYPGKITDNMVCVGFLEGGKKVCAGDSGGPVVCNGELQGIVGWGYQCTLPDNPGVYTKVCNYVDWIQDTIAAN
Description: (§1) Hydrolysis reactions were performed in a solution containing varying concentrations of the acyl donor Bz-[…]-OH (0-5000 μM for Trypsiligase II, 0-1500 μM for variant A2C8), 2 μM trypsin variant, 100 mM HEPES/NaOH pH 7.8, 100 mM NaCl, 10 mM CaCl2 at 30° C. In case of Trypsiligase II the reactions were performed in the presence of 100 μM ZnCl2. The reaction was started by the addition of enzyme. For kinetic evaluation of the reaction several aliquots of the reaction mixture were quenched with 25% (v/v) acetic acid at distinct time points within 30 minutes. The composition of the reaction mixture was analyzed by UPCL using method I (see example 1). UV absorption of the N-terminal benzoyl-group (Bz-), which is present in the acyl donor as well as in the hydrolysis product, was detected at 254 nm. To determine the turnover rate of the hydrolysis reaction (kcat,HL) the initial rates for the hydrolysis reaction were plotted against the corresponding acyl donor concentration and fitted to the Michaelis Menten equation. Measurements were performed as duplicates and errors were less than 5%.

[2] = system: Bz-PGGYRAHAG-OH (acyl donor); experiment: as above
Description: as §1

[3] = system: R1-YRKK-R2 (Bz-PGGYRKKAG-OH) / H-RKKAK(DNP)-OH; experiment: Zinc dependence of the transamidation reaction, A2C8 and K7F11, YRKK; details: 100 μM acyl donor, 200 μM acyl acceptor
Description: (§2) Model transamidation reactions were performed in a solution containing 15 to 250 μM acyl donor, 2 eq. of the corresponding acyl acceptor, varying concentrations of trypsin variant, 100 mM HEPES/NaOH pH 7.8, ±0.1 mM ZnC12, 100 mM NaCl, 10 mM CaCl2) at 30° C. Acyl donor and acyl acceptor had the same amino acids in P1′-P3′ position, e.g. Bz-[…]+H-RAHAK-OH or Bz-[…]+H-RKKAK-OH. Variations are indicated. The acyl acceptor could be equipped with a 2,4-Dinitrophenyl group (DNP) at the side chain of the terminal lysine, e.g. H-RAHAK(DNP)-OH or H-RKKAK(DNP)-OH. The reactions were started by the addition of enzyme. To record the time course of product formation and/or for kinetic evaluation of the reaction several aliquots of the reaction mixture were quenched with 25% (v/v) acetic acid at distinct time points within up to 4 hours. The composition of the reaction mixture was analyzed by UPCL with method I or II, depending on the absence (method 1) or presence (method II) of a 2,4-dinitrophenyl group within the acyl acceptor (see example 1). Measurements were performed as duplicates and errors were less than 5%.

[4] = target: T2, Bz-PGGYRAHAG-OH (acyl donor) (Rattus norvegicus, UniProt P00763, D194K/K66E/Y45H/Y65H); experiment: Turnover rate of the hydrolysis reaction in the absence of a nucleophilic peptide; details: Zinc ions (100 μM): yes; varying Bz-PGGYRAHAG-OH, 2 μM trypsin variant, no nucleophilic peptide
T2 construct: made in house; host or cells: Pichia pastoris X-33
T2 sequence (P00763 24-246 Y45H/Y65H/K66E/D194K): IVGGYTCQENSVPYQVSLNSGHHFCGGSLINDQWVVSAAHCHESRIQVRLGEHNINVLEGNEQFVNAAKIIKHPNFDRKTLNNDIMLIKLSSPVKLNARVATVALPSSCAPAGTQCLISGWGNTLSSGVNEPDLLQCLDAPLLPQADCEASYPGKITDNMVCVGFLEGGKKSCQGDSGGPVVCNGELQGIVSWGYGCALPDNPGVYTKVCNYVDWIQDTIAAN
Description: as §1

[5] = target: T3, Bz-PGGYRAHAG-OH (acyl donor) / H-RAHAK-OH (acyl acceptor) (Rattus norvegicus, UniProt P00763, D194K/K66E/Y45H/Y65H); experiment: Model transamidation at high and low substrate concentrations, Trypsiligase II; details: for product yield (%) / kcat, AL^app (mkat/mol) / kcat, AL^app/kcat, HL^app / kcat, HL^app (mkat/mol): 0.1 mM ZnCl2
T3 construct: monomeric enzyme species (about 24 kDa); made in house; host or cells: Pichia pastoris X-33 (pPICZalphaA, secreted)
T3 sequence (P00763 24-246 Y45H/Y65H/K66E/D194K): T2 sequence (P00763 24-246 Y45H/Y65H/K66E/D194K)
Description: as §2
The suitability of variant A2C8 and K7F11 as transamidases was further investigated in comparison to the native Trypsiligase II. Therefore the enzymatic parameters for the catalyzed transamidation reaction were determined by a model transamidation reaction using peptide substrates with the preferred recognition motive. In addition the model transamidation reaction was performed at high (250 μM) and low (15 μM) substrate concentrations to check, whether the new biocatalysts could also efficiently catalyze the desired reaction at low substrate concentration, which is a crucial requirement for the modification of therapeutic proteins. […] It was assumed that an improved transamidation activity is reached by introducing mutations which improve the affinity of the biocatalyst for the nucleophilic peptide and/or reduce its hydrolysis activity. Therefore corresponding experimental data describing both parameters for the native Trypsiligase II as well as variant A2C8 were determined.

B1: A2C8: Trypsiligase II + H40F, A55A, R96E, K97D, L99F, N143E, E151Y, S190V, Q192A, S214G, G219Q, A221T (protein)
chain: T1 sequence (P00763 24-246 Y45H/H46F/Y65H/K66E/R101E/K102D/L104F/N146E/E154Y/D194K/S195V/Q197A/S215G/G219Q/A221T)
kcat, HL (mkat/mol) [1]: 86.6 mkat/mol
reduction in the enzyme's hydrolysis activity versus Trypsiligase II (factor) [2]: 7
kcat, AL^app + Zn^2+ (mkat/mol) ([3]; 0.1 mM ZnCl2): 18.04 mkat/mol
product yield + Zn^2+ (%) ([3]; 0.1 mM ZnCl2): 59.0%
kcat, AL^app − Zn^2+ (mkat/mol) ([3]; absence of zinc ions): 17.7 mkat/mol
product yield − Zn^2+ (%) ([3]; absence of zinc ions): 59.7%

B2: Trypsiligase II (trypsin variant Y39H/Y59H/K60E/D189K) (protein)
chain: T2 sequence (P00763 24-246 Y45H/Y65H/K66E/D194K)
kcat, HL (mkat/mol) [4]: 602.1 mkat/mol
product yield (%) ([5]; [Substrate] 15 μM Bz-PGGYRAHAG-OH, 30 μM H-RAHAK-OH): 3% and 3.2%
kcat, AL^app (mkat/mol) ([5]; [Substrate] 15 μM): 0.33 mkat/mol
kcat, AL^app/kcat, HL^app ([5]; [Substrate] 15 μM): 0.1
kcat, HL^app (mkat/mol) ([5]; [Substrate] 15 μM): 2.84 mkat/mol
product yield (%) ([5]; [Substrate] 250 μM Bz-PGGYRAHAG-OH, 500 μM H-RAHAK-OH): 17% and 17.3%
kcat, AL^app (mkat/mol) ([5]; [Substrate] 250 μM): 14.40 mkat/mol
kcat, AL^app/kcat, HL^app ([5]; [Substrate] 250 μM): 0.9
kcat, HL^app (mkat/mol) ([5]; [Substrate] 250 μM): 16.00 mkat/mol
turnover rate of hydrolysis relative to aminolysis ([5]; substrate concentration 15 μM): tenfold higher turnover rate
